B1: LuUGT74S1 (Linum usitatissimum; H194S) (protein)
chain: MAGDEREKAHCLVVPAAAQGHFTPLLQFSKRLIPKRIRVTLALTRFIHSTMTVTAQSGIHIDTISDGFDHSGLILQDPEHYSQTFRRVGSETLTDLIRKQSESRHPVHCIIYDASMPWFLDVAKRFGIVGAAFLTQSCAVNAIYYHLREGTIKRPVVSDPAAGTLVIDGLPPLEVSDLPSFIWDDLHTEFLAASLRQFSNDGADWVFCNTVYQLELEAVDWLTKQWLINFRTIGPTIPSFYLDKQIPDDKDYDISIFNPQNQTCMNWLQSKPDGSVVYVSFGSLARLSPQQTEELYFGLKNSNHYFLWVVRESEVAKLPKEEYLSGEKGLVVSWCSQLQVLASGKVGCFVTHCGWNSTLEALSLGVPMVAMPECGDQLTNAKFIKDVWKTGVRAEADDGKGIMWGMIKREVIERCIREVMEGEETRRNADKWGKIIKEAVVEGGSSDKNTEDFATSLINFAETFQFSC
notes: N-terminal GST fusion (pGEX-4T-1, EcoRI/NotI), tag kept (eluted with glutathione); codon-optimised synthetic gene; E. coli BL21(DE3) pLysS
B2: LuUGT74S1 (Linum usitatissimum) (protein)
chain: B1 chain with S194H
notes: as for B1
B3: LuUGT74S1 (Linum usitatissimum; Y144F) (protein)
chain: B1 chain with Y144F, S194H
notes: as for B1
B4: LuUGT74S1 (Linum usitatissimum; Q136S) (protein)
chain: B1 chain with Q136S, S194H
notes: as for B1
B5: LuUGT74S1 (Linum usitatissimum; Q136E) (protein)
chain: B1 chain with Q136E, S194H
notes: as for B1
B6: LuUGT74S1 (Linum usitatissimum; A17S) (protein)
chain: B1 chain with A17S, S194H
notes: as for B1
B7: LuUGT74S1 (Linum usitatissimum; S115A) (protein)
chain: B1 chain with S115A, S194H
notes: as for B1
B8: LuUGT74S1 (Linum usitatissimum; Q136F) (protein)
chain: B1 chain with Q136F, S194H
notes: as for B1
B9: LuUGT74S1 (Linum usitatissimum; S115F) (protein)
chain: B1 chain with S115F, S194H
notes: as for B1

Where a chain is given by its changes, count along the chain named. Names may count otherwise.

Substrate in this data set: COc1cc(C[C@@H](CO)[C@H](CO)Cc2ccc(O)c(OC)c2)ccc1O
Briefly: UDP-Glo glycosyltransferase assay (UDP release), Michaelis-Menten fit. The settings on record: apparent, UDP-glucose 1.64 mM constant (general assay text says 100 μM), 50 mM phosphate pH 8, 30 °C, 30 min, total of mono- and diglucosylation. It counts as biochemical, Linum usitatissimum. An excerpt: UDP-Glo glycosyltransferase assay (UDP release), Michaelis-Menten fit on LuUGT74S1
With B1, the Km (commonly the substrate concentration at which the rate is half of its maximum) is 122 ± 12 µM; the Vmax (usually the rate approached at saturating substrate) was 0.384 µmol/min/mg; the kcat (as a rule, the maximal rate divided by the concentration of active sites) came to 0.34 ± 0.06 s⁻¹; the catalytic efficiency (kcat/Km) (as a rule, the second-order rate constant that governs catalysis at low substrate concentration) was determined as 3000 M⁻¹ s⁻¹.
The matching figures for B2: 74 ± 1 µM, 0.948 µmol/min/mg, 0.8 ± 0.01 s⁻¹ and 11000 M⁻¹ s⁻¹.
For the protein B3, the Km is 72 ± 1 µM, the maximum rate (Vmax) is 0.9 µmol/min/mg, the kcat came to 0.75 ± 0.02 s⁻¹ and the specificity constant (kcat/Km) was 10000 M⁻¹ s⁻¹.
The like results for B4 were, in that order, 75 ± 1 µM, 1.02 µmol/min/mg, 0.92 ± 0.71 s⁻¹ and 12000 M⁻¹ s⁻¹.
The matching figures for B5: 69 ± 2 µM, 0.858 µmol/min/mg, 0.75 ± 0.02 s⁻¹ and 11000 M⁻¹ s⁻¹.
The matching figures for B6: 68 ± 1 µM, 0.75 µmol/min/mg, 0.56 ± 0.45 s⁻¹ and 8000 M⁻¹ s⁻¹.
On to B7, for which the Km worked out at 70 ± 2 µM, the Vmax turned out to be 0.894 µmol/min/mg, the kcat stood at 0.76 ± 0.08 s⁻¹ and the kcat/Km turned out to be 11000 M⁻¹ s⁻¹.
On to B8, for which the Michaelis constant (Km) was found to be 165 ± 9 µM, the Vmax amounted to 0.324 µmol/min/mg, the kcat was found to be 0.29 ± 0.04 s⁻¹ and the catalytic efficiency (kcat/Km) was determined as 2000 M⁻¹ s⁻¹.
The matching figures for B9: 75 ± 1 µM, 0.834 µmol/min/mg, 0.77 ± 0.02 s⁻¹ and 10000 M⁻¹ s⁻¹.
